Data taken from patent US20220380450A1 (AstraZeneca / MedImmune, published 2022).
Each block holds one binder with its values, some of them ahead of it.

Experiments:
[1] = target: T1, epidermal growth factor receptor (EGFR), endogenous in NHBE, DHBE and A549 cells (human, UniProt P00533 25-1210); assay: anti-EGFR (AF231) immunoprecipitation from NHBE lysate, LC-MS; cells stimulated with 30 ng/ml reduced IL-33-01 for 10 min; IL-33 not detected in complex with EGFR
T1 construct: whole, on cells; Endogenous receptor; also called EGF Receptor

[2] = target: T2, EGFR-Fc (R&D Systems #344-ER-050) (UniProt P00533 25-645); assay: ELISA: biotinylated HMGB1 on streptavidin plate, EGFR-Fc with untagged RAGE (Sino Biological 11629-HCCH) at 10 µg/mL, anti-human IgG HRP
T2 construct: Bought reagent; not shown: Fc part of the bought fusion (detected with anti-human IgG HRP)
Procedure: (§1) Plates were washed 3× with 200 μl PBS-T (PBS+1% (v/v) Tween-20) and blocked with 300 μl/well blocking buffer (PBS with 1% BSA (Sigma, A9576)) for 1 hour. […] Plates were washed with 200 μl PBS-T three times. […] Plates were washed 3× with PBS-T and developed with TMB, 100 μl/well (Sigma, T0440). The reaction was quenched with 50 μl/well 0.1M H₂SO₄. Absorbance was read at 450 nm on the Cytation Gen5 or similar equipment.

[3] = target: T3, RAGE-Fc (R&D Systems #1145-RG) (UniProt Q15109 23-344, limits assumed); assay: ELISA, FIG. 7A: biotinylated HMGB1 on streptavidin plate, RAGE-Fc
T3 construct: Bought reagent; not shown: Fc part of the bought fusion (detected with anti-human IgG HRP)
T3 sequence (Q15109 23-344 limits assumed): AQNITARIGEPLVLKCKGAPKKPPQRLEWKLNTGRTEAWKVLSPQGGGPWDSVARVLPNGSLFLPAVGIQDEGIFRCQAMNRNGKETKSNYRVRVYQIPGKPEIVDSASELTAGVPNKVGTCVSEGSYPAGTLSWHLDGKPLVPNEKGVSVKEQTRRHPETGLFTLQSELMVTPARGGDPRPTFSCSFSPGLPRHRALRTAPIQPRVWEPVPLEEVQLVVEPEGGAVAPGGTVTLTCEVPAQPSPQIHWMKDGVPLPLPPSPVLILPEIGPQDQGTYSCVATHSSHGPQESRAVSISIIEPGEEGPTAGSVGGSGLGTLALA
Procedure: as §1

[4] = target: T3, RAGE-Fc (R&D Systems #1145-RG); assay: ELISA: biotinylated oxIL-33 on streptavidin plate, RAGE-Fc at 10 µg/mL, anti-human IgG HRP
Procedure: as §1

- binding result [1]: no binding
B1: Untagged IL33-01 (ligand)
chain: SITGISPITEYLASLSTYNDQSITFALEDESYEIYVEDLKKDEKKDKVLLSYYESQHPSNESGDGVDGKMLMVTLSPTKDFWLHANNKEHSVELHKCEKPLPDQAFFVLHNMHSNCVSFECKTDPGVFIGVKDNHLALIKVDSSENLCTENILFKLSET
notes: Reduced wild type form; also called reduced IL-33; WT IL-33

- binding result [2]: no binding (tested: 10 µg/mL)
- binding result [3]: binds
B2: HMGB1 (R&D systems 1690-HMB-050), biotinylated (ligand, UniProt P09429 1-215, looked up)
chain: MGKGDPKKPRGKMSSYAFFVQTCREEHKKKHPDASVNFSEFSKKCSERWKTMSAKEKGKFEDMAKADKARYEREMKTYIPPKGETKKKFKDPNAPKRPPSAFFLFCSEYRPKIKGEHPGLSIGDVAKKLGEMWNNTAADDKQPYEKKAAKLKEKYEKDIAAYRAKGKPDAAKKGVVKAEKSKKKKEEEEDEEDEEDEEEEEDEEDEDEEEDDDDE
modifications: biotinylated via free amines (EZ link Sulfo-NHS-LC-Biotin)
notes: Immobilised on streptavidin plates in the ELISA of section 10; called a known RAGE ligand / bona fide RAGE agonist

- binding result [4]: binds
B3: Avitag_IL-33-01 (oxidised IL-33) (ligand)
chain: MHHHHHHHHHHAAGLNDIFEAQKIEWHEAAIEGRSITGISPITEYLASLSTYNDQSITFALEDESYEIYVEDLKKDEKKDKVLLSYYESQHPSNESGDGVDGKMLMVTLSPTKDFWLHANNKEHSVELHKCEKPLPDQAFFVLHNMHSNCVSFECKTDPGVFIGVKDNHLALIKVDSSENLCTENILFKLSET
modifications: biotinylated on the Avitag with BirA; oxidised (disulphide bonded) form
notes: also called oxIL-33; biotinylated oxidised N-terminal tagged His10/Avitag IL33-01
